125 sequences from the supplement of paper PMC9112550, “Optimization of the antimicrobial peptide Bac7 by deep mutational scanning” (BMC Biology, 2022) can be followed below.

The data set concerns Escherichia coli TOP10. Put plainly: shrunken log2 fold change of peptide-encoding DNA abundance (4.5 h post-induction vs induction); higher = less antimicrobial activity (less host growth inhibition). As to conditions: time post-induction: 4.5 h; library: site-saturation at positions 5, 18, 19, 20.
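Further: peptides expressed intracellularly from a pBAD plasmid library in pooled LB shake-flask culture, induced with 0.3% L-arabinose, DNA abundance read by NGS, three biological replicates, DESeq2 with apeglm shrinkage.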

Regarding RRIRPRPPRLPRPRPRPEWQPRP, the “shrunken log2 fold change” value came to 0.137.
With RRIRMRPPRLPRPRPRPWPMPRP, the “shrunken log2 fold change” value is 0.304.
The same measure for RRIRRRPPRLPRPRPRPVWQPRP: 0.395; for RRIRQRPPRLPRPRPRPYYNPRP: -0.392.
The same measure for RRIRPRPPRLPRPRPRPSWFPRP: -0.248; for RRIRLRPPRLPRPRPRPLEPPRP: 0.0493.
The same measure for RRIRIRPPRLPRPRPRPGLTPRP: -0.0421; for RRIRGRPPRLPRPRPRPDTNPRP: 0.199; for RRIRPRPPRLPRPRPRPNNGPRP: -0.335.
For the sequence RRIRQRPPRLPRPRPRPYQMPRP, the “shrunken log2 fold change” value is -0.00133.
Take RRIRQRPPRLPRPRPRPGCCPRP: the “shrunken log2 fold change” value turned out to be 0.202.
For RRIRDRPPRLPRPRPRPQPGPRP, the “shrunken log2 fold change” value worked out at 0.237.
For RRIRHRPPRLPRPRPRPRFDPRP, the “shrunken log2 fold change” value is -0.163.
The same measure for RRIRQRPPRLPRPRPRPDGPPRP: 0.0029; for RRIRFRPPRLPRPRPRPKGEPRP: 0.35; for RRIRHRPPRLPRPRPRPSPQPRP: -0.358.
Under RRIRRRPPRLPRPRPRPKPAPRP stands 0.347.
Under RRIRIRPPRLPRPRPRPHISPRP stands -0.0489; under RRIRPRPPRLPRPRPRPHKIPRP, -0.193; under RRIRYRPPRLPRPRPRPFSTPRP, -0.0961.
In the case of RRIRHRPPRLPRPRPRPWPFPRP, the “shrunken log2 fold change” value is -0.285.
Regarding RRIRLRPPRLPRPRPRPPFLPRP, the “shrunken log2 fold change” value came out at 0.105.
Regarding RRIRSRPPRLPRPRPRPFHIPRP, the “shrunken log2 fold change” value is -1.07.
Under RRIRRRPPRLPRPRPRPIFTPRP stands 0.2; under RRIRIRPPRLPRPRPRPRALPRP, 0.0988.
The same measure for RRIRTRPPRLPRPRPRPQEWPRP: -0.0128; for RRIRKRPPRLPRPRPRPHSWPRP: 0.0385; for RRIRVRPPRLPRPRPRPRRGPRP: 0.579.
For the sequence RRIRQRPPRLPRPRPRPWLVPRP, the “shrunken log2 fold change” value is -0.0624.
In the case of RRIRKRPPRLPRPRPRPVHLPRP, the “shrunken log2 fold change” value is -0.0295.
Under RRIRQRPPRLPRPRPRPNRGPRP stands -0.0689; under RRIRIRPPRLPRPRPRPIGLPRP, -0.242; under RRIRGRPPRLPRPRPRPSATPRP, 3.09.
Under RRIRRRPPRLPRPRPRPKEWPRP stands 0.044.
The same measure for RRIRIRPPRLPRPRPRPGFHPRP: 0.876.
RRIRHRPPRLPRPRPRPCTKPRP: the “shrunken log2 fold change” value amounted to 0.0647.
With RRIRPRPPRLPRPRPRPMPNPRP, the “shrunken log2 fold change” value was 0.156.
Under RRIRRRPPRLPRPRPRPHGEPRP stands 0.0136; under RRIRSRPPRLPRPRPRPADSPRP, -0.176; under RRIRKRPPRLPRPRPRPGRHPRP, 0.227.
Under RRIRTRPPRLPRPRPRPHPRPRP stands 0.467.
The same measure for RRIRFRPPRLPRPRPRPDHKPRP: -0.406; for RRIRRRPPRLPRPRPRPTMDPRP: 0.147; for RRIRLRPPRLPRPRPRPCGMPRP: -0.0649.
For RRIRNRPPRLPRPRPRPRSKPRP, the “shrunken log2 fold change” value worked out at 0.0945.
Under RRIRSRPPRLPRPRPRPQIHPRP stands -0.341.
For the sequence RRIRQRPPRLPRPRPRPVFFPRP, the “shrunken log2 fold change” value is 0.0102.
The same measure for RRIRLRPPRLPRPRPRPITVPRP: -0.216; for RRIRLRPPRLPRPRPRPDLEPRP: 0.0992.
Under RRIRHRPPRLPRPRPRPFMYPRP stands -0.249; under RRIRMRPPRLPRPRPRPELKPRP, 0.95; under RRIRRRPPRLPRPRPRPHPKPRP, 0.474.
Take RRIRDRPPRLPRPRPRPGTIPRP: the “shrunken log2 fold change” value is -0.485.
Under RRIRPRPPRLPRPRPRPELWPRP stands 0.889.
With RRIRFRPPRLPRPRPRPLIDPRP, the “shrunken log2 fold change” value is -0.227.
Under RRIRMRPPRLPRPRPRPRRDPRP stands 0.651; under RRIRHRPPRLPRPRPRPCFWPRP, -0.0857; under RRIRSRPPRLPRPRPRPWMDPRP, -0.0373.
Under RRIRHRPPRLPRPRPRPVDGPRP stands -0.00557; under RRIRQRPPRLPRPRPRPHWLPRP, -0.222; under RRIRERPPRLPRPRPRPRSRPRP, -0.195.
Under RRIRVRPPRLPRPRPRPSKRPRP stands -0.229.
Turning to RRIRLRPPRLPRPRPRPQRSPRP, the “shrunken log2 fold change” value is 0.16.
For RRIRGRPPRLPRPRPRPITQPRP, the “shrunken log2 fold change” value is -0.0614.
The same measure for RRIRIRPPRLPRPRPRPIQPPRP: -0.044; for RRIRNRPPRLPRPRPRPGKLPRP: -0.0284; for RRIRYRPPRLPRPRPRPEYMPRP: -0.271.
On to RRIRMRPPRLPRPRPRPHRQPRP, for which the “shrunken log2 fold change” value stood at 0.532.
The same measure for RRIRIRPPRLPRPRPRPLHTPRP: -0.456.
Under RRIRMRPPRLPRPRPRPQDIPRP stands -0.0524.
In the case of RRIRTRPPRLPRPRPRPMCRPRP, the “shrunken log2 fold change” value is -0.0404.
In the case of RRIRTRPPRLPRPRPRPWFRPRP, the “shrunken log2 fold change” value is -0.128.
Under RRIRIRPPRLPRPRPRPYVEPRP stands -0.0566.
The same measure for RRIRIRPPRLPRPRPRPSRQPRP: -0.747.
Regarding RRIRTRPPRLPRPRPRPGTYPRP, the “shrunken log2 fold change” value came to 0.0862.
Under RRIRWRPPRLPRPRPRPKQWPRP stands 0.155; under RRIRFRPPRLPRPRPRPDQFPRP, -0.221.
Consider RRIRQRPPRLPRPRPRPDTDPRP, for which the “shrunken log2 fold change” value is -0.00927.
Under RRIRTRPPRLPRPRPRPVDFPRP stands 0.231; under RRIRKRPPRLPRPRPRPKKWPRP, 0.406.
The same measure for RRIRLRPPRLPRPRPRPHQMPRP: -0.199.
Under RRIRSRPPRLPRPRPRPNKCPRP stands -0.42; under RRIRIRPPRLPRPRPRPVSIPRP, -0.624.
For the sequence RRIRQRPPRLPRPRPRPDRAPRP, the “shrunken log2 fold change” value amounted to 0.12.
Under RRIRSRPPRLPRPRPRPPDMPRP stands -0.188; under RRIRPRPPRLPRPRPRPHTNPRP, 0.401; under RRIRNRPPRLPRPRPRPFLQPRP, -0.206.
With RRIRVRPPRLPRPRPRPCWSPRP, the “shrunken log2 fold change” value was found to be 0.0821.
Under RRIRYRPPRLPRPRPRPIFNPRP stands -0.89.
Under RRIRHRPPRLPRPRPRPCRQPRP stands -0.035; under RRIRIRPPRLPRPRPRPTGGPRP, -0.00471.
Under RRIRMRPPRLPRPRPRPTGYPRP stands 0.0453.
Take RRIRHRPPRLPRPRPRPQPQPRP: the “shrunken log2 fold change” value is -0.00539.
For RRIRVRPPRLPRPRPRPVKIPRP, the “shrunken log2 fold change” value is -0.29.
The same measure for RRIRHRPPRLPRPRPRPDPPPRP: 0.232.
Under RRIRSRPPRLPRPRPRPITEPRP stands 0.0453; under RRIRGRPPRLPRPRPRPPLMPRP, 0.717; under RRIRPRPPRLPRPRPRPFFTPRP, -0.117.
For the sequence RRIRKRPPRLPRPRPRPLAAPRP, the “shrunken log2 fold change” value is 0.847.
The same measure for RRIRIRPPRLPRPRPRPPRYPRP: -0.217.
The same measure for RRIRERPPRLPRPRPRPMPRPRP: 0.0247; for RRIRFRPPRLPRPRPRPLPHPRP: -0.0994; for RRIRMRPPRLPRPRPRPGCDPRP: 1.85.
The same measure for RRIRLRPPRLPRPRPRPAMFPRP: -0.0833; for RRIRNRPPRLPRPRPRPIRQPRP: 0.0261; for RRIRCRPPRLPRPRPRPQVAPRP: 0.0924.
For RRIRVRPPRLPRPRPRPLFSPRP, the “shrunken log2 fold change” value is -0.261.
As for RRIRCRPPRLPRPRPRPKFEPRP, the “shrunken log2 fold change” value came to 0.00386.
Under RRIRSRPPRLPRPRPRPALSPRP stands 0.497; under RRIRYRPPRLPRPRPRPTMWPRP, 0.0172; under RRIRNRPPRLPRPRPRPPRPPRP, 0.704.
Under RRIRKRPPRLPRPRPRPIAEPRP stands 0.0504; under RRIRLRPPRLPRPRPRPQAEPRP, 0.0388; under RRIRCRPPRLPRPRPRPHQNPRP, -0.276.
Regarding RRIRWRPPRLPRPRPRPAQYPRP, the “shrunken log2 fold change” value turned out to be 0.122.
Under RRIRVRPPRLPRPRPRPFTYPRP stands -0.105; under RRIRLRPPRLPRPRPRPKACPRP, 0.16; under RRIRDRPPRLPRPRPRPNPKPRP, 0.165.
Under RRIRRRPPRLPRPRPRPIRCPRP stands 0.334; under RRIRLRPPRLPRPRPRPIYYPRP, -0.561.
In the case of RRIRNRPPRLPRPRPRPVCPPRP, the “shrunken log2 fold change” value is -0.14.
The same measure for RRIRMRPPRLPRPRPRPYELPRP: 0.0224; for RRIRGRPPRLPRPRPRPHWDPRP: 0.645; for RRIRGRPPRLPRPRPRPPDHPRP: 0.982.
Consider RRIRMRPPRLPRPRPRPGPMPRP, for which the “shrunken log2 fold change” value is 1.05.
